In patent publication US20210179728A1 (OSE IMMUNOTHERAPEUTICS, published 2021):

Experiments:
PDL1Fc = target: T1, PDL1Fc (human, UniProt Q9NZQ7 19-238); assay: ELISA: modified antibody (concentration on the axis) captured on SIRPa-His, then PDL1Fc, detected with mouse anti-human PDL1 [panel PD1]
T1 construct: not shown: Fc; not specified
From the text: (§1) FIG. 24. Ligand binding assay with the different modified anti-SIRPa antibodies by ELISA.

[1] = target: T2, recombinant hSIRPa (Sino Biologicals, reference 11612-H08H) (human, UniProt P78324 31-370); assay: competition ELISA on coated SIRPa-His; competitor biotinylated CD47-Fc at 6 ug/ml, streptavidin-peroxidase [panel PD1]
T2 construct: also called SIRPa-His; human SIRPa-His; not shown: His tag (histidine tail)
Procedure: (§2) Method: For competitive ELISA assay, recombinant hSIRPa (Sino Biologicals, Beijing, China; reference 11612-H08H) was immobilized on plastic at 0.5 μg/ml in carbonate buffer (pH9.2).

[2] = target: T2, recombinant hSIRPa (Sino Biologicals, …); assay: ELISA on immobilized SIRPa-His, peroxidase anti-human IgG, DO 450nm [panel PD1]
Procedure: (§3) Method: For ELISA assay, recombinant hSIRPa (Sino Biologicals, Beijing, China; reference 11612-H08H) was immobilized on plastic at 0.5 μg/ml in carbonate buffer (pH9.2) and different modified anti-SIRPa antibodies were added to measure binding to SIRPa.

[3] = target: T2, recombinant hSIRPa (Sino Biologicals, …); assay: competition ELISA on coated SIRPa-His; competitor biotinylated CD47-Fc at 6 ug/ml, streptavidin-peroxidase [panel 4-1BBL]
Procedure: as §2

PD1His = target: T3, PD1His (human, UniProt Q15116 25-170, limits assumed); assay: ELISA: modified antibody (concentration on the axis) captured on SIRPa-His, then PD1His, detected with mouse anti-His [panel PDL1]
T3 construct: not shown: His tag
From the text: as §1

[4] = target: T2, recombinant hSIRPa (Sino Biologicals, …); assay: competition ELISA on coated SIRPa-His; competitor biotinylated CD47-Fc at 6 ug/ml, streptavidin-peroxidase [panel PDL1]
Procedure: as §2

CD28Fc = target: T4, CD28Fc (human, UniProt P10747 19-152, limits assumed); assay: ELISA: modified antibody (concentration on the axis) captured on SIRPa-His, then CD28Fc, detected with mouse anti-human CD28 [panel ICOSL]
T4 construct: not shown: Fc; not specified
From the text: as §1

[5] = target: T2, recombinant hSIRPa (Sino Biologicals, …); assay: ELISA on immobilized SIRPa-His, peroxidase anti-human IgG, DO 450nm [panel ICOSL]
Procedure: as §3

B1: modified anti-SIRPa HEFLB antibody with ECD of PD1 on the heavy chain (antibody, human IgG4 S228P, kappa)
heavy: not shown
light: DVVMTQSPLSLPVTLGQPASISCRSSQSLVHSYGNTYLYWFQQRPGQSPRLLIYRVSNRFSGVPDRFSGSGSGTDFTLKISRVEAEDVGVYYCFQGTHVPYTFGGGTKVEIKRTVAAPSVFIFPPSDEQLKSGTASVVCLLNNFYPREAKVQWKVDNALQSGNSQESVTEQDSKDSTYSLSSTLTLSKADYEKHKVYACEVTHQGLSSPVTKSFNRGEC
notes: also called VHprot+VL (PD1); HEF-PD1 + LB
binding result (PDL1Fc): binds | IC50 (read off the curve) [1]: ~0.2 µg/mL | EC50 (read off the curve) [2]: ~0.008 µg/mL

B2: modified anti-SIRPa HEFLB antibody with ECD of 4-1BBL on the heavy chain (antibody, human IgG4 S228P, kappa)
heavy: not shown
light: B1 light
notes: as m25, ECD of 4-1BBL; also called VHprot+VL (4-1BBL); VH-4-1BBL
IC50 (read off the curve) [3]: ~0.3 µg/mL

B3: modified anti-SIRPa HEFLB antibody with ECD of PDL1 on the heavy chain (antibody, human IgG4 S228P, kappa)
heavy: not shown
light: B1 light
notes: as m25, ECD of PDL1; also called VHprot+VL (PDL1); VH-PDL1
binding result (PD1His): binds | IC50 (read off the curve) [4]: ~0.3 µg/mL

B4: modified anti-SIRPa HEFLB antibody with ECD of ICOSL on the light chain (antibody, human IgG4 S228P, kappa)
heavy: not shown
light: DVVMTQSPLSLPVTLGQPASISCRSSQSLVHSYGNTYLYWFQQRPGQSPRLLIYRVSNRFSGVPDRFSGSGSGTDFTLKISRVEAEDVGVYYCFQGTHVPYTFGGGTKVEIKRTVAAPSVFIFPPSDEQLKSGTASVVCLLNNFYPREAKVQWKVDNALQSGNSQESVTEQDSKDSTYSLSSTLTLSKADYEKHKVYACEVTHQGLSSPVTKSFNRGECGGGGSGGGGSGGGGSDTQEKEVRAMVGSDVELSCACPEGSRFDLNDVYVYWQTSESKTVVTYHIPQNSSLENVDSRYRNRALMSPAGMLRGDFSLRLFNVTPQDEQKFHCLVLSQSLGFQEVLSVEVTLHVAANFSVPVVSAPHSPSQDELTFTCTSINGYPRPNVYWINKTDNSLLDQALQNDTVFLNMRGLYDVVSVLRIARTPSVNIGCCIENVLLQQNLTVGSQTGNDIGERDKITENPVSTGEKNAAT
notes: as m32, ECD of ICOSL; also called VH+VLprot (ICOSL); HEF + LB-ICOSL
binding result (CD28Fc): binds | EC50 (read off the curve) [5]: ~0.006 µg/mL
